Source: the supplement of paper PMC7125110
± gives the standard error. For some of these results: This sample holds only a part of the variants without activity.

B1: glmS ribozyme (parent)
chain: AUAAAAGCGCCAGAACUACAGAAAUGUAGUUGACGAGGAGGAGGUUUAUCGAAUUUUCGGCGGAUGCCUCCAAA

Tests used:
Details in all cases: with glucosamine-6-phosphate
[1] = variants of: B1; test: kcat; higher = faster cleavage; RNA array
In short: (§1)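 E. coli RNA polymerase transcribed barcoded ribozyme variants in situ on sequenced MiSeq chips, which were tracked via a hybridised Cy3 probe at 37 °C. Tiles were imaged over ~14 h after glucosamine-6-phosphate (40 μM to 10 mM) in HEPES/KCl/Mg(OAc)2 buffer was flowed in. Normalised per-tile medians were fit to one- or two-exponential decays for kobs, and kcat and KM came from weighted Michaelis–Menten fits.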

[2] = variants of: B1; test: KM; higher = weaker cofactor use; RNA array
In short: as §1

[3] = variants of: B1; test: self-cleavage kobs at 40 uM GlcN6P; higher = faster cleavage; RNA array
In short: as §1

[4] = variants of: B1; test: self-cleavage kobs at 160 uM GlcN6P; higher = faster cleavage; RNA array
In short: as §1

[5] = variants of: B1; test: self-cleavage kobs at 640 uM GlcN6P; higher = faster cleavage; RNA array
In short: as §1

[6] = variants of: B1; test: self-cleavage kobs at 2500 uM GlcN6P; higher = faster cleavage; RNA array
In short: as §1

[7] = variants of: B1; test: self-cleavage kobs at 10000 uM GlcN6P; higher = faster cleavage; RNA array
In short: as §1

Row | Variant | kcat [1] | KM [2] | self-cleavage kobs at 40 uM GlcN6P [3] | self-cleavage kobs at 160 uM GlcN6P [4] | self-cleavage kobs at 640 uM GlcN6P [5] | self-cleavage kobs at 2500 uM GlcN6P [6] | self-cleavage kobs at 10000 uM GlcN6P [7]
1 | U47A U56G | 0.0204 ± 0.0071 s⁻¹ | 3000 ± 1300 µM | 0.000264 ± 4.1e-05 s⁻¹ | 0.000981 ± 0.00018 s⁻¹ | 0.00418 ± 0.00053 s⁻¹ | 0.0064 ± 0.0017 s⁻¹ | 0.0194 ± 0.0038 s⁻¹
2 | U47G U65G | 0.00249 ± 0.00033 s⁻¹ | 2760 ± 530 µM | 3.08e-05 ± 1.1e-05 s⁻¹ | 0.000153 ± 2e-05 s⁻¹ | 0.000451 ± 7e-05 s⁻¹ | 0.00107 ± 0.00015 s⁻¹ | 0.0021 ± 0.00028 s⁻¹
3 | U49A C70U | 2.22e-05 ± 1.1e-05 s⁻¹ |  |  |  |  | 3.89e-05 ± 1.9e-05 s⁻¹ | 
4 | U49A C70G | 1.43e-05 ± 3.7e-06 s⁻¹ |  |  |  |  |  | 
5 | C50G U56A | 3e-05 ± 4.9e-06 s⁻¹ |  |  |  |  | 4.14e-05 ± 1.9e-05 s⁻¹ | 
6 | A48U A53G | 0.000396 ± 3.6e-05 s⁻¹ | 1560 ± 290 µM |  | 2.96e-05 ± 1.2e-05 s⁻¹ | 0.000127 ± 1.9e-05 s⁻¹ | 0.000229 ± 3.5e-05 s⁻¹ | 0.000349 ± 4.7e-05 s⁻¹
7 | A52G G66U | 0.00018 ± 2.4e-05 s⁻¹ | 4030 ± 1300 µM |  |  | 2.89e-05 ± 1.1e-05 s⁻¹ | 6.2e-05 ± 1.6e-05 s⁻¹ | 0.00013 ± 1.5e-05 s⁻¹
8 | A52C C71U | 1.4e-05 ± 5.1e-07 s⁻¹ | 1650 ± 280 µM | < 1e-05 s⁻¹ |  |  |  | 
9 | U49C C50U | < 1e-05 s⁻¹ |  | < 1e-05 s⁻¹ |  |  |  | < 1e-05 s⁻¹
10 | U49C C50G | < 1e-05 s⁻¹ |  | < 1e-05 s⁻¹ | < 1e-05 s⁻¹ |  |  | < 1e-05 s⁻¹
11 | A48G U56G | 7.92e-05 ± 1.9e-06 s⁻¹ | 696 ± 110 µM | < 1e-05 s⁻¹ |  |  | 6.4e-05 ± 1.3e-05 s⁻¹ | 7.35e-05 ± 8.9e-06 s⁻¹
12 | A48G U56C | 5.09e-05 ± 1.7e-06 s⁻¹ | 3700 ± 360 µM |  |  |  |  | 3.71e-05 ± 1.1e-05 s⁻¹
13 | U49G C68U | 0.000145 ± 1.9e-05 s⁻¹ | 862 ± 360 µM |  | 5.03e-05 ± 2.2e-05 s⁻¹ | 6.17e-05 ± 1.2e-05 s⁻¹ | 9.44e-05 ± 1.6e-05 s⁻¹ | 0.000144 ± 1.8e-05 s⁻¹
14 | U49G C61A | 1.48e-05 ± 3.5e-06 s⁻¹ |  |  |  |  |  | 
15 | C50A G66C | 1.65e-05 ± 3e-06 s⁻¹ |  |  |  |  |  | 
16 | U47G A53G U57C C68U | 9.73e-05 ± 3.2e-05 s⁻¹ |  |  |  | 3.09e-05 ± 1.2e-05 s⁻¹ | 3.84e-05 ± 1.3e-05 s⁻¹ | 8.44e-05 ± 1.8e-05 s⁻¹
17 | U49G U54G C67A | 0.00023 ± 5.1e-05 s⁻¹ |  |  |  | 0.000235 ± 5.1e-05 s⁻¹ | 0.000269 ± 7.4e-05 s⁻¹ | 0.000194 ± 3.6e-05 s⁻¹
18 | A52G C70A | 6.21e-05 ± 4e-06 s⁻¹ |  | 2.42e-05 ± 1.2e-05 s⁻¹ | 4.3e-05 ± 1.3e-05 s⁻¹ | 5.8e-05 ± 6.8e-06 s⁻¹ | 6.59e-05 ± 6.1e-06 s⁻¹ | 5.24e-05 ± 7.9e-06 s⁻¹
19 | A52G C70U | 0.00261 ± 0.00024 s⁻¹ | 3870 ± 600 µM | 2.96e-05 ± 5.4e-06 s⁻¹ | 0.000108 ± 3.7e-05 s⁻¹ | 0.00037 ± 6.1e-05 s⁻¹ | 0.000878 ± 0.00015 s⁻¹ | 0.00194 ± 0.00018 s⁻¹
20 | C50U C61G C70U | 1.56e-05 ± 2.6e-06 s⁻¹ |  |  |  |  |  | 
21 | A52G A64C C70A | 1.92e-05 ± 6.2e-06 s⁻¹ |  |  |  |  |  | 
22 | A48U C71A | 0.000129 ± 1.2e-05 s⁻¹ | 1380 ± 540 µM |  |  |  | 0.000102 ± 2.6e-05 s⁻¹ | 0.000111 ± 1.4e-05 s⁻¹

Row | Variant | kcat [1] | KM [2] | self-cleavage kobs at 40 uM GlcN6P [3] | self-cleavage kobs at 160 uM GlcN6P [4] | self-cleavage kobs at 640 uM GlcN6P [5] | self-cleavage kobs at 2500 uM GlcN6P [6] | self-cleavage kobs at 10000 uM GlcN6P [7]
23 | A48U C71G | 4.92e-05 ± 1e-05 s⁻¹ |  |  |  | 4.04e-05 ± 7.5e-06 s⁻¹ | 6.5e-05 ± 9.8e-06 s⁻¹ | 3.69e-05 ± 8e-06 s⁻¹
24 | C50U A52G | 1.11e-05 ± 2.8e-06 s⁻¹ |  |  |  |  |  | 
25 | A52C U55G | 5.71e-05 ± 5.1e-06 s⁻¹ |  | < 1e-05 s⁻¹ |  |  |  | 
26 | U47C C50U | 4.46e-05 ± 3.5e-07 s⁻¹ | 1670 ± 52 µM |  |  |  | 2.69e-05 ± 1.3e-05 s⁻¹ | 3.82e-05 ± 1.1e-05 s⁻¹
27 | U47C C50A | 3.31e-05 ± 5.7e-06 s⁻¹ | 3090 ± 1500 µM |  |  |  |  | 
28 | C50U U54G | 2.58e-05 ± 7.2e-06 s⁻¹ |  |  |  |  | 4e-05 ± 1.6e-05 s⁻¹ | 
29 | C50U G59U | < 1e-05 s⁻¹ | 71.2 ± 32 µM | < 1e-05 s⁻¹ |  | < 1e-05 s⁻¹ |  | < 1e-05 s⁻¹
30 | A48C C67A | 0.000168 ± 1e-05 s⁻¹ | 1800 ± 310 µM |  |  | 4.27e-05 ± 9.9e-06 s⁻¹ | 0.000104 ± 1.4e-05 s⁻¹ | 0.00014 ± 1.4e-05 s⁻¹
31 | A48G C58U | 1.71e-05 ± 2.1e-06 s⁻¹ |  |  |  |  |  | 
32 | G51U A52G | < 1e-05 s⁻¹ |  | < 1e-05 s⁻¹ |  | < 1e-05 s⁻¹ | < 1e-05 s⁻¹ | 
33 | U47G C50U A64C | 1.3e-05 ± 3.4e-06 s⁻¹ |  |  |  |  |  | 
34 | U47G G66U | 0.000146 ± 7.9e-06 s⁻¹ | 756 ± 130 µM |  | 3.12e-05 ± 1.5e-05 s⁻¹ | 6.79e-05 ± 8.7e-06 s⁻¹ | 0.000106 ± 1.1e-05 s⁻¹ | 0.000142 ± 1.4e-05 s⁻¹
35 | G51A U69A | 1.6e-05 ± 2.9e-06 s⁻¹ |  |  |  |  |  | 
36 | C50G G66A | 4.08e-05 ± 1e-05 s⁻¹ |  |  | 5.66e-05 ± 2.2e-05 s⁻¹ |  |  | 
37 | G51C U54C | < 1e-05 s⁻¹ |  |  |  | < 1e-05 s⁻¹ | < 1e-05 s⁻¹ | 
38 | U49C C67G | < 1e-05 s⁻¹ |  | < 1e-05 s⁻¹ | < 1e-05 s⁻¹ |  |  | < 1e-05 s⁻¹
39 | U49A A53G | 2.25e-05 ± 2.1e-06 s⁻¹ | 3410 ± 1000 µM |  |  |  |  | 
40 | G51U C67A C71U | 2.47e-05 ± 3.5e-06 s⁻¹ |  |  |  |  |  | 
41 | U49C C70G | 1.42e-05 ± 2.5e-06 s⁻¹ |  |  |  |  |  | < 1e-05 s⁻¹
42 | A48C U54C | 0.00042 ± 0.00013 s⁻¹ |  |  |  | 9.71e-05 ± 2.4e-05 s⁻¹ | 0.000224 ± 6e-05 s⁻¹ | 0.000316 ± 9.5e-05 s⁻¹
43 | A48C U54A | 0.000452 ± 4.8e-05 s⁻¹ | 1720 ± 350 µM |  | 3.98e-05 ± 2e-05 s⁻¹ | 0.000118 ± 2.2e-05 s⁻¹ | 0.000342 ± 8.9e-05 s⁻¹ | 0.000371 ± 6.6e-05 s⁻¹
